T1: Bfl-1, Q16548
T1 chain: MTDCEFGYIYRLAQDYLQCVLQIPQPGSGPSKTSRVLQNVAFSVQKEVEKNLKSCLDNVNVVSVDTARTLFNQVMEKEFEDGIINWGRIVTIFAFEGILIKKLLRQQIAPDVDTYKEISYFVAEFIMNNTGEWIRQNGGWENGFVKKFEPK

T2: Mcl-1, Q07820
T2 chain: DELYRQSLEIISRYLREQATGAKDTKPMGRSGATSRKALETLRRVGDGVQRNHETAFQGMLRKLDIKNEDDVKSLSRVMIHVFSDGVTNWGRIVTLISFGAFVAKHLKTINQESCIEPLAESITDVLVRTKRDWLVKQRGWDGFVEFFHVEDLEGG

T3: Bcl-w, Q92843
T3 chain: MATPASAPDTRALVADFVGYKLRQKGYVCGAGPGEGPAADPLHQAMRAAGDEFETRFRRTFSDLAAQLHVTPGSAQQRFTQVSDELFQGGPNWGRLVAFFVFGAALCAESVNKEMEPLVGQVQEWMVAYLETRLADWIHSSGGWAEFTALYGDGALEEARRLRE


Key:
Test in all cases: peptide SPOT array, c-Myc-tagged receptor at 1 uM or 100 nM, anti-c-Myc-Cy3
[1] = target: Bcl-xL, Q07817
Chain of Bcl-xL, Q07817 (Q07817 1-209): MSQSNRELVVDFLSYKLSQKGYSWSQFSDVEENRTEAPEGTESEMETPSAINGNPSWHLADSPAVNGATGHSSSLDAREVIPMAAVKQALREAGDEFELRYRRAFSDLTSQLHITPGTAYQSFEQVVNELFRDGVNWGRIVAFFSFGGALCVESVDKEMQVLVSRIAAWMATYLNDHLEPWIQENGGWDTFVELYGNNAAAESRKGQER

[2] = target: T1, Bfl-1, Q16548
[3] = target: T2, Mcl-1, Q07820
[4] = target: T3, Bcl-w, Q92843
[5] = target: Bcl-2, P10415
Chain of Bcl-2, P10415 (P10415 1-217): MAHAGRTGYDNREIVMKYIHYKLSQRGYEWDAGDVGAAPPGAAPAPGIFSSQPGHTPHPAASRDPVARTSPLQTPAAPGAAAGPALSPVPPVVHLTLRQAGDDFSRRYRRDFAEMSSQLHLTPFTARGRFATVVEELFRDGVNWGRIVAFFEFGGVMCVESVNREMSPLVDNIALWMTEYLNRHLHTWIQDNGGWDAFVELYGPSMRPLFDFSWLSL

Row | Binder | SPOT signal as a fraction of Bim BH3's signal on the same receptor and array [1] | SPOT signal as a fraction of Bim BH3's signal on the same receptor and array [2] | SPOT signal as a fraction of Bim BH3's signal on the same receptor and array [3] | SPOT signal as a fraction of Bim BH3's signal on the same receptor and array [4] | SPOT signal as a fraction of Bim BH3's signal on the same receptor and array [5]
1 | AELEVECATQDRRFGDKLNFRQKLLN [PMAIP1] | 0.06 | 0.07 | 0.05 |  | 
2 | SSTMGQVGRQLAIILDDINRRYDSEF [BAK1] | 0.02 | 0.01 | 0.01 |  | 
3 | RMIVDCVSSHLKKTLDGAKTFIIFLC [BBS10] | 0.61 | 0.24 | 0.21 |  | 
4 | AFGLGDLPNLLGLVLDQLGDTERKRR [ADAMTS14] | 0.07 | 0.05 | 0.06 |  | 
5 | VLLTLLVAAVDRCQGQDVQEAGSCVQ [COL2A1] | 0.05 | 0.03 | 0.05 |  | 
6 | SMRRNAMGVGLVFEADLFTTRHISHW [DNAH10] | 0.24 | 0.3 | 0.32 |  | 
7 | SQGKHGFTMADNAFGDMTNEEFRQMM [CTSL2] | 0.06 | 0.05 | 0.06 |  | 
8 | APEEDFFSIHDRIVGDWTEGLFNACG [CYBB] | 0.05 | 0.03 | 0.03 |  | 
9 | CHGLRELALNDHLLSDELLLALSSEK [FBXL3] | 0.06 | 0.04 | 0.04 |  | 
10 | SGLPGLSSVDINNFGDSINESEGIPL [MKI67] | 0.08 | 0.04 | 0.04 |  | 
11 | ISSLDLLPYGLRYIAKVLKNSIHEKF [IQGAP2] | 0.8 | 0.64 | 0.57 |  | 
12 | NGGLLEFHKSDQEIGDKNDHWFDIDP [DZIP3] | 0.12 | 0.04 | 0.04 |  | 
13 | QCPIFRLGDIDRETGDNFSDVAIQGG [P2RX7] | 0.05 | 0.03 | 0.04 |  | 
14 | KLALEQRCRELRARGRRLEETLPRRI [KIF19] | 1.22 | 0.62 | 0.58 |  | 
15 | QAGPVSSGLALRKLGDRVQLLNLLVT [CCDC57] | 1.06 | 0.39 | 0.57 |  | 
16 | CGEWTRRSLHLRVLGRQLILPTDKGV [FAM149A] | 1.07 | 0.7 | 0.76 |  | 
17 | MEMYQPSAVVDQCGADSLSGDRLGCF [HDAC2] | 0.06 | 0.03 | 0.04 |  | 

Further lines, results first:

Row | SPOT signal as a fraction of Bim BH3's signal on the same receptor and array [1] | SPOT signal as a fraction of Bim BH3's signal on the same receptor and array [2] | SPOT signal as a fraction of Bim BH3's signal on the same receptor and array [3] | SPOT signal as a fraction of Bim BH3's signal on the same receptor and array [4] | SPOT signal as a fraction of Bim BH3's signal on the same receptor and array [5] | Binder
18 | 0.32 | 0.21 | 0.21 |  |  | FVGYNSTGAELRHWLDMLANPRRPIA [SYT1]
19 | 1.19 | 1.19 | 1.07 |  |  | FKAWGKFGGAFCRYLDEMKEIQERQR [PURB]
20 | 0.07 | 0.04 | 0.04 |  |  | ADVHGIWSRLFCDFGDEFEVLDTTGE [UBA6]
21 |  | 0.23 |  | 0.89 | 0.1 | VKVFGKAVQALSRISDEFWLDPSKKG [RAD9B]
22 | 0.07 | 0.06 | 0.05 |  |  | WLKGDILGEKLVNLADCLCNEDLESR
23 | 0.06 | 0.05 | 0.05 |  |  | GYPFNDVCQWFIDRLDLIFVVFDPTK [SRL]
24 | 0.07 | 0.05 | 0.04 |  |  | WLKGDILGEKDVNLADCLCNEDLESR
25 |  | 0.03 |  | 0.02 | 0.01 | AGLDMNISQFLKSLGLEHLRDIFETE [TNKS]
26 | 0.06 | 0.04 | 0.04 |  |  | LFWTPLLVVLLAGLGDTEAQQTTLHP [SGCA]
27 | 0.07 | 0.04 | 0.04 |  |  | KIETTPESRYLAQILDSVSLTCSTTG [VCAM1]
28 |  | 0.03 |  | 0.02 | 0.01 | VKVLGKAVHSLSRIGDELYLEPLEDG [RAD9A]
29 | 0.05 | 0.03 | 0.03 |  |  | TSRINEVQVNDSLLGDDLLLPAQSTL [SPHKAP]
30 | 0.74 | 0.61 | 0.9 |  |  | TRRSMVFARHLREVLDEFRSRHLNST [POFUT2]
